Reference: paper doi:10.1101/2025.05.30.657017

Columns and labels:
[1] = molecular target: MtrR, endogenous in M. mazei (Methanosarcina mazei (endogenous in M. mazei)); assay: western blot of the strep-tactin eluate
[2] = molecular target: strep-tagged soluble domain of the MtrA subunit (M1 - S168), RED labeled (Methanosarcina mazei) (UniProt O59640); assay: MST
[3] = molecular target: MtrR-His6 constitutively expressed in M. mazei (pRS2087) (Methanosarcina mazei Gö1); assay: IMAC purification and western blot

Sequence of UniProt O59640 (O59640 1-168): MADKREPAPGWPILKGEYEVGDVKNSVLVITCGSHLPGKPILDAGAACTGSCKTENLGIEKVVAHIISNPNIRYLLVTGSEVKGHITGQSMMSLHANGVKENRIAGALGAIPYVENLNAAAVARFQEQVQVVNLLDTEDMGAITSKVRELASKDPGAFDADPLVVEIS

How did the stoichiometry N [1] turn out when “MtrR, endogenous in M. mazei (natural protein)” was run?
Its stoichiometry N is 2.

With “MtrR-His6 (small protein MtrR encoded by small ORF16, C-terminal his-tag), heterologously expressed in E. coli (natural protein)” as the substance, how does the Kd [2] read?
The Kd was 110 nM.

For “MtrR-His6 constitutively expressed in M. mazei (pRS2087) (natural protein)”, which stoichiometry N [3] is on record?
The stoichiometry N was 2.
